Patent publication US20030148958A1 (PROCTER AND GAMBLE, published 2003)
Ends that are not written are not given here.

Columns and labels:
[1] = biological target: T1, corticotropin releasing factor 2 receptor; assay: cell-based or functional assay
T1 sequence (Q13324 whole entry, species assumed, looked up): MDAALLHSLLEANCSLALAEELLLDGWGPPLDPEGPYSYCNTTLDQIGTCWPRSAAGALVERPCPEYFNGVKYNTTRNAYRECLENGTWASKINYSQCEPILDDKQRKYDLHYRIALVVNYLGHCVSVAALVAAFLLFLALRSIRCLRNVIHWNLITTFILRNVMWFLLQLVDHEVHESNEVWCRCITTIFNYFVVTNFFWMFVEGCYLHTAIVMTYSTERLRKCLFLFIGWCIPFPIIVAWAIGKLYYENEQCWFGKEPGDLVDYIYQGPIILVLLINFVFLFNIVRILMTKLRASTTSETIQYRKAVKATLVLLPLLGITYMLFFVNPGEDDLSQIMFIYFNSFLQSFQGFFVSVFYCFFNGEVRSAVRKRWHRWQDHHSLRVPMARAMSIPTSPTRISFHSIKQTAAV

[2] = biological target: corticotropin releasing factor 1 receptor; assay: cell-based or functional assay
Throughout, for CRF1R Emax: reference of the scale not given here.
Throughout, for CRF2R Emax: reference of the scale not given here.

Binder	CRF2R EC50 [1] [nM]	CRF2R Emax [1] [%]	CRF1R EC50 [2] [nM]	CRF1R Emax [2] [%]
DNPSLSIDLPFYLLRTLLELARTQSQRERAEQNAIIFASV-NH2 [SEQ ID NO 183]	7.93	100	415	57.5
IVLSLDVPIGLLQILIEIEKQEKEKQQAANNARILARV-NH2 [SEQ ID NO 166]	3.7	99	438	95
DNPSLSIDLPFHLLRTLLELARTQSQRERAEQNAIIFASV-NH2 [SEQ ID NO 185]	8.98	100	358	95.8
DNPSLSIDLPFILLRTLLELARTQSQRERAEQNAIIFASV-NH2 [SEQ ID NO 181]	5.22	97.8	154	100
DNPSLSIDLPLHLLRTLLELARTQSQRERAEQNAIIFASV-NH2 [SEQ ID NO 179]	10.2	92.5	477	78.9
IVLSLDVPIGLLQILIEIEKQEKEKQQAATTNARILARV-NH2 [SEQ ID NO 168]	4.9	75	1000	52
DNPSLSIDLPLILLRTLLELARTQSQRERAEQNAIIFASV-NH2 [SEQ ID NO 175]	5.42	92.2	1000	34.8
DNPSLSIDLPLYLLRTLLELARTQSQRERAEQNAIIFASV-NH2 [SEQ ID NO 177]	5.63	97.7	613	69.2
DNPSLSIDLPFLLLRTLLELARTQSQRERAEQNAIIFASV-NH2 [SEQ ID NO 180]	3.14	95.7	125	99.3
ZGPPISIDLPFQLLRKMIEIEKQEKEKQQATTNRLLLATV (C-terminal amide) [SEQ ID NO 17]	10.2	96	260	98
ZGPPISIDLPFILLRKMIEIEKQEKEKQQAANNRLLLDTI (C-terminal amide) [SEQ ID NO 189]	7	96	62.2	57
ZGPPISIDLPFQLLRKMIEIEKQEKEKQQATTNRLLLDRV (C-terminal amide) [SEQ ID NO 18]	5.29	97	106	100
ZGPPISIDLPFLLLRKMIEIEKQEKEKQQAANNRLLLDTI (C-terminal amide) [SEQ ID NO 191]	8.3	100	63.7	65
ZGPPISIDLPFQLLRKMIEIEKQEKEKQQATTNRLLLARV (C-terminal amide) [SEQ ID NO 19]	7.42	75	232	83
ZGPPISIDLPFVLLRKMIEIEKQEKEKQQAANNRLLLDTI (C-terminal amide) [SEQ ID NO 190]	39.6	31	> 100	9
ZGPPISIDVPFQLLRKMIEIEKQEKEKQQATTNARILARV (C-terminal amide) [SEQ ID NO 172]	13.5	100	1000	68
DNPSLSIDLPFFLLRTLLELARTQSQRERAEQNAIIFASV-NH2 [SEQ ID NO 184]	3.72	96.5	486	77.3
IVLSLDVPIGLLQILLEQEKQEKEKQQATTNARILARV-NH2 [SEQ ID NO 167]	13	100	1000	15
ZGPPISIDLPHWLLRKMIEIEKQEKEKQQAANNRLLLDTI (C-terminal amide) [SEQ ID NO 186]	25.1	100	323	100
ZGPPISIDLPLLLLRKMIEIEKQEKEKQQAANNRLLLDTI (C-terminal amide) [SEQ ID NO 188]	14.6	100	162	96
ZGPPISIDLPWFLLRKMIEIEKQEKEKQQAANNRLLLDTI (C-terminal amide) [SEQ ID NO 187]	10.3	100	31.6	72
ZGPPISIDLPIWLLRKMIEIEKQEKEKQQAANNRLLLDTI (C-terminal amide) [SEQ ID NO 192]	66.8	97	562	99
DNPSLSIDLPFQLLRTLLELARTQSQRERAEQNAIIFASV-NH2 [SEQ ID NO 182]	7.21	91.4	409	89.7
DNPSLSIDLPTYLLRTLLELARTQSQRERAEQNAIIFASV-NH2 [SEQ ID NO 173]	100	65.2	1000	6.05
DNPSLSIDLPLFLLRTLLELARTQSQRERAEQNAIIFASV-NH2 [SEQ ID NO 178]	5.17	96.5	1000	55.7
ZGPPISIDVPTYLLRILIEIEKQEKEKQQATTNARILARV (C-terminal amide) [SEQ ID NO 169]	17.8	93	978	26
ZGPPISIDVPTYLLRKMIEIEKQEKEKQQATTNARILARV (C-terminal amide) [SEQ ID NO 170]	75	83	1000	9
ZGPPISIDVPFQLLRILIEIEKQEKEKQQATTNARILARV (C-terminal amide) [SEQ ID NO 171]	17.6	100	206	99
DNPSLSIDLPLQLLRTLLELARTQSQRERAEQNAIIFASV-NH2 [SEQ ID NO 176]	12.6	90.2	1000	26.9
DNPSLSIDLPLLLLRTLLELARTQSQRERAEQNAIIFASV-NH2 [SEQ ID NO 174]	4.42	97.2	1000	29.1
